The record followed here is paper PMC4865804.

The target of experiment [1] is [ES] complex (FVIIa/TF_(PCPS)/FX) (UniProt P13726). Put plainly: enzyme inhibition kinetics (mixed-type fit, secondary plots); FX activation by FVIIa (10 pM) in complex with recombinant human TF (Innovin); FX 0.58-50 nM; ringhalexin 50-150 nM; 50 mM HEPES pH 7.4, 140 mM NaCl, 5 mM CaCl2, 1% BSA, 37 °C; FXa read by hydrolysis of 500 μM S-2222 at 405 nm.
For experiment [2], the target named is extrinsic tenase complex (FVIIa/TF_(PCPS)), the [E] complex (human) (UniProt P13726). The experiment is described as above.
Experiment [3] shares this target.

B1: ringhalexin (Ringhals extrinsic tenase complex inhibitor) (natural protein)
chain: RLCLSDYSIFSETIEICPEGHNYCFKKFPKGITRLPWVIRGCAATCPKPEAQVYVDCCARDKCNR
As for B1, the Ki' (inhibitor constant for the [ES] complex) in experiment [1] came to 152 nM. In addition, the Ki (as a rule, a dissociation constant, usually derived from enzyme kinetics or from competition with a known ligand) in experiment [2] turned out to be 84.2 nM. Also, the inhibition of FX activation by the reconstituted extrinsic tenase complex (FXa formed, measured by S-2222 hydrolysis); ringhalexin 100 pM to 3 μM, FX 30 nM in experiment [3] turned out to be 124 nM.
